Results: US20160024487

Legend:
[1] = biological target: T1, Lys(Dnp)-ATNATATPRIVGG-Lys(Abz)
T1 chain: KATNATATPRIVGGK

[2] = biological target: T2, Lys(Dnp)-ATNATIVPRIVGG-Lys(Abz)
T2 chain: KATNATIVPRIVGGK

[3] = biological target: T3, Lys(Dnp)-ATNATIHPRIVGG-Lys(Abz)
T3 chain: KATNATIHPRIVGGK

[4] = biological target: T4, Lys(Dnp)-ATNATMMPRIVGG-Lys(Abz)
T4 chain: KATNATMMPRIVGGK

[5] = biological target: T5, Lys(Dnp)-ATNATLAPRIVGG-Lys(Abz)
T5 chain: KATNATLAPRIVGGK

[6] = biological target: T6, Lys(Dnp)-ATNATWPPRIVGG-Lys(Abz)
T6 chain: KATNATWPPRIVGGK

[7] = biological target: T7, Lys(Dnp)-ATNATMFPRIVGG-Lys(Abz)
T7 chain: KATNATMFPRIVGGK

[8] = biological target: T8, Lys(Dnp)-ATNATFTPRIVGG-Lys(Abz)
T8 chain: KATNATFTPRIVGGK

[9] = biological target: T9, Lys(Dnp)-ATNATPWPRIVGG-Lys(Abz)
T9 chain: KATNATPWPRIVGGK

[10] = biological target: T10, Lys(Dnp)-ATNATMYPRIVGG-Lys(Abz)
T10 chain: KATNATMYPRIVGGK

[11] = biological target: T11, Lys(Dnp)-ATNATAGPRIVGG-Lys(Abz)
T11 chain: KATNATAGPRIVGGK

[12] = biological target: T12, Lys(Dnp)-ATNATVWPRIVGG-Lys(Abz)
T12 chain: KATNATVWPRIVGGK

[13] = biological target: T13, Lys(Dnp)-ATNATAFPRIVGG-Lys(Abz)
T13 chain: KATNATAFPRIVGGK

[14] = biological target: T14, Lys(Dnp)-ATNATMGPRIVGG-Lys(Abz)
T14 chain: KATNATMGPRIVGGK

[15] = biological target: T15, Lys(Dnp)-ATNATRPPRIVGG-Lys(Abz)
T15 chain: KATNATRPPRIVGGK

[16] = biological target: T16, Lys(Dnp)-ATNATFGPRIVGG-Lys(Abz)
T16 chain: KATNATFGPRIVGGK

[17] = biological target: T17, Lys(Dnp)-ATNATSNPRIVGG-Lys(Abz)
T17 chain: KATNATSNPRIVGGK

[18] = biological target: T18, Lys(Dnp)-ATNATYNPRIVGG-Lys(Abz)
T18 chain: KATNATYNPRIVGGK

[19] = biological target: T19, Lys(Dnp)-ATNATYHPRIVGG-Lys(Abz)
T19 chain: KATNATYHPRIVGGK

[20] = biological target: T20, Lys(Dnp)-ATNATKWPRIVGG-Lys(Abz)
T20 chain: KATNATKWPRIVGGK

[21] = biological target: T21, Lys(Dnp)-ATNATEYPRIVGG-Lys(Abz)
T21 chain: KATNATEYPRIVGGK

[22] = biological target: T22, Lys(Dnp)-ATNATQEPRIVGG-Lys(Abz)
T22 chain: KATNATQEPRIVGGK

[23] = biological target: T23, Lys(Dnp)-ATNATNRPRIVGG-Lys(Abz)
T23 chain: KATNATNRPRIVGGK

[24] = biological target: T24, Lys(Dnp)-ATNATPHPRIVGG-Lys(Abz)
T24 chain: KATNATPHPRIVGGK

[25] = biological target: T25, Lys(Dnp)-ATNATPGPRIVGG-Lys(Abz)
T25 chain: KATNATPGPRIVGGK

[26] = biological target: T26, Lys(Dnp)-ATNATDLPRIVGG-Lys(Abz)
T26 chain: KATNATDLPRIVGGK

[27] = biological target: T27, Lys(Dnp)-ATNATRRPRIVGG-Lys(Abz)
T27 chain: KATNATRRPRIVGGK

[28] = biological target: T28, Lys(Dnp)-ATNATINPRIVGG-Lys(Abz)
T28 chain: KATNATINPRIVGGK

[29] = biological target: T29, Lys(Dnp)-ATNATELPRIVGG-Lys(Abz)
T29 chain: KATNATELPRIVGGK

[30] = biological target: T30, Lys(Dnp)-ATNATKKPRIVGG-Lys(Abz)
T30 chain: KATNATKKPRIVGGK

[31] = biological target: T31, Lys(Dnp)-ATNATLNPRIVGG-Lys(Abz)
T31 chain: KATNATLNPRIVGGK

[32] = biological target: T32, Lys(Dnp)-ATNATRWPRIVGG-Lys(Abz)
T32 chain: KATNATRWPRIVGGK

[33] = biological target: T33, Lys(Dnp)-ATNATLLPRIVGG-Lys(Abz)
T33 chain: KATNATLLPRIVGGK

[34] = biological target: T34, Lys(Dnp)-ATNATRTPRIVGG-Lys(Abz)
T34 chain: KATNATRTPRIVGGK

[35] = biological target: T35, Lys(Dnp)-ATNATWVPRIVGG-Lys(Abz)
T35 chain: KATNATWVPRIVGGK

[36] = biological target: T36, Lys(Dnp)-ATNATESPRIVGG-Lys(Abz)
T36 chain: KATNATESPRIVGGK

[37] = biological target: T37, Lys(Dnp)-ATNATKGPRIVGG-Lys(Abz)
T37 chain: KATNATKGPRIVGGK

[38] = biological target: T38, Lys(Dnp)-ATNATERPRIVGG-Lys(Abz)
T38 chain: KATNATERPRIVGGK

[39] = biological target: T39, Lys(Dnp)-ATNATYGPRIVGG-Lys(Abz)
T39 chain: KATNATYGPRIVGGK

[40] = biological target: T40, Lys(Dnp)-ATNATASPRIVGG-Lys(Abz)
T40 chain: KATNATASPRIVGGK

[41] = biological target: T41, Lys(Dnp)-ATNATDMPRIVGG-Lys(Abz)
T41 chain: KATNATDMPRIVGGK

B1: Human plasma purified Factor Xa (protein)
chain 1: ANSFLEEMKKGHLERECMEETCSYEEAREVFEDSDKTNEFWNKYKDGDQCETSPCQNQGKCKDGLGEYTCTCLEGFEGKNCELFTRKLCSLDNGDCDQFCHEEQNSVVCSCARGYTLADNGKACIPTGPYPCGKQTLER
chain 2: IVGGQECKDGECPWQALLINEENEGFCGGTILSEFYILTAAHCLYQAKRFKVRVGDRNTEQEEGGEAVHEVEVVIKHNRFTKETYDFDIAVLRLKTPITFRMNVAPACLPERDWAESTLMTQKTGIVSGFGRTHEKGRQSTRLKMLEVPYVDRNSCKLSSSFIITQNMFCAGYDTKQEDACQGDSGGPHVTRFKDTYFVTGIVSWGEGCARKGKYGIYTKVTAFLKWIDRSMKTRGLPKAKSHAPEVITSSPLK
Question: What does the source list for B1?
Answer: FXa kcat/KM [1]: 330 M⁻¹ s⁻¹; FXa kcat/KM [2]: 360 M⁻¹ s⁻¹; FXa kcat/KM [3]: 810 M⁻¹ s⁻¹; FXa kcat/KM [4]: 1000 M⁻¹ s⁻¹; FXa kcat/KM [5]: 230 M⁻¹ s⁻¹; FXa kcat/KM [6]: 17 M⁻¹ s⁻¹; FXa kcat/KM [7]: 55 M⁻¹ s⁻¹; FXa kcat/KM [8]: 49 M⁻¹ s⁻¹; FXa kcat/KM [9]: 1300 M⁻¹ s⁻¹; FXa kcat/KM [10]: 110 M⁻¹ s⁻¹; FXa kcat/KM [11]: 14 M⁻¹ s⁻¹; FXa kcat/KM [12]: 190 M⁻¹ s⁻¹; FXa kcat/KM [13]: 22 M⁻¹ s⁻¹; FXa kcat/KM [14]: 54 M⁻¹ s⁻¹; FXa kcat/KM [15]: 7 M⁻¹ s⁻¹; FXa kcat/KM [16]: 100 M⁻¹ s⁻¹

B2: Human plasma purified Factor Xa (Molecular Innovations, Inc) (protein)
chain 1: B1 chain 1
chain 2: B1 chain 2
Question: B2 was tested. Which FXa kcat/KM [17] did it give?
Answer: 24 M⁻¹ s⁻¹

Question: And the FXa kcat/KM [18]?
Answer: 50 M⁻¹ s⁻¹

Question: And the FXa kcat/KM [19]?
Answer: 43 M⁻¹ s⁻¹

Question: And the FXa kcat/KM [20]?
Answer: 130 M⁻¹ s⁻¹

Question: What about the FXa kcat/KM [21] of the same protein?
Answer: 15 M⁻¹ s⁻¹

Question: And the FXa kcat/KM [22]?
Answer: 920 M⁻¹ s⁻¹

Question: And the FXa kcat/KM [23]?
Answer: 220 M⁻¹ s⁻¹

Question: What about the FXa kcat/KM [24] of the same protein?
Answer: 360 M⁻¹ s⁻¹

Question: What about the FXa kcat/KM [25] of the same protein?
Answer: 100 M⁻¹ s⁻¹

Question: And the FXa kcat/KM [26]?
Answer: 27 M⁻¹ s⁻¹

Question: And the FXa kcat/KM [27]?
Answer: 900 M⁻¹ s⁻¹

Question: What about the FXa kcat/KM [28] of the same protein?
Answer: 870 M⁻¹ s⁻¹

Question: What about the FXa kcat/KM [29] of the same protein?
Answer: 100 M⁻¹ s⁻¹

Question: And the FXa kcat/KM [30]?
Answer: 25 M⁻¹ s⁻¹

Question: What about the FXa kcat/KM [9] of the same protein?
Answer: 1300 M⁻¹ s⁻¹

Question: And the FXa kcat/KM [31]?
Answer: 940 M⁻¹ s⁻¹

Question: And the FXa kcat/KM [32]?
Answer: 3000 M⁻¹ s⁻¹

Question: And the FXa kcat/KM [33]?
Answer: 590 M⁻¹ s⁻¹

Question: What about the FXa kcat/KM [34] of the same protein?
Answer: 1500 M⁻¹ s⁻¹

Question: And the FXa kcat/KM [35]?
Answer: 86 M⁻¹ s⁻¹

Question: What about the FXa kcat/KM [36] of the same protein?
Answer: 5.3 M⁻¹ s⁻¹

Question: What about the FXa kcat/KM [37] of the same protein?
Answer: 33 M⁻¹ s⁻¹

Question: What about the FXa kcat/KM [38] of the same protein?
Answer: 300 M⁻¹ s⁻¹

Question: And the FXa kcat/KM [39]?
Answer: 41 M⁻¹ s⁻¹

Question: What about the FXa kcat/KM [40] of the same protein?
Answer: 310 M⁻¹ s⁻¹

Question: And the FXa kcat/KM [41]?
Answer: 11 M⁻¹ s⁻¹
